Article PMC4498774

Target: T1, His-BaeR (Acinetobacter baumannii ATCC 17978) (UniProt A0ABX6CJ55)
T1 sequence: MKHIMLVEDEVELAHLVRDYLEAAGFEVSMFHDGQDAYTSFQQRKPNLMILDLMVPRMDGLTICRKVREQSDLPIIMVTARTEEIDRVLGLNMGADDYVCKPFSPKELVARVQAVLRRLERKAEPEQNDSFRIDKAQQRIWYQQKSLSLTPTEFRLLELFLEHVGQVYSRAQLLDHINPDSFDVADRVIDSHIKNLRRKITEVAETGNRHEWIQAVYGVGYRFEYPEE
Assay: EMSA

TTTCTGAGCAGCAGCAGCTTGCTGTTTCTCATCGGAGCCTTTGCTACAACCAACAAGCGCGATACTTGTTGCTAATGCGCAAGCAGTAAGGGCTGGTGCCCAAAGCTTAGCCGACATCATTGTTCCACCTCGTTTAGATAAAAT (double strand) [adeI promoter region (144 bp)]
binding: no binding

GCCTTCACGTTTTAAATAATTTTCAATAATGTCGCCAATATCGTAGTCATCTTCTACCACAAGAATAACTTTATCTTGGCAATCAAAAGAAAAAGAATGATCAAACATAGAAAATCTGGCTATAGAAAGTGCTTCAACTCATCATACGCTAAATTATCCGTATTTCTCCACACTTACTCCACACTTTAGTGATTATCCCTACACACTCATCAAAAATAATACGAACATCAAAAACTCACTAGG (double strand) [adeA promoter region (243 bp)]
binding: no binding
